According to patent publication US20190161544A1 (SUNSHINE GUOJIAN PHARMACEUTICAL SHANGHAI, published 2019):

How the values were obtained:
[1] = target: T1, recombinant human IL-17A (purchased from R&D Systems) (human, UniProt Q16552 24-155); assay: cell-based or functional assay
[2] = target: T2, hIL-17A (analyte of the Biacore assay) (human, UniProt Q16552 24-155); assay: SPR, Biacore (as in Example 6): antibody captured, hIL-17A as analyte
T2 construct: The Biacore method says only 'hIL-17A'; also called human IL-17A
Experimental: (§1) The specific experimental method was as follows: Amine Coupling Kit (GE healthcare) was used to activate CM5 sensor chips (GE healthcare) and recombinant Protein A/G (Thermo Pierce) was immobilized on the chip with an amount of 2000 RU. FC3 (Flow cell 3) was a reference channel, and FC4 (Flow cell 4) was a sample channel. […] The cycling conditions were as follows: the analyte was injected at 50 μl/min for 4 min in all channels of the FCs, the dissociation time was 20 min, and 6M guanidine hydrochloride (National Pharmaceutical Group Chemical Reagent Co., Ltd.) was injected at a rate of 10 μl/min for 30 s to surface regeneration. Then, difference between the signals of the captured antibodies and antibody-free controls were adopted to calculate binding kinetics and affinities using Biacore T200 Evaluation Software Ver 1.0.

[3] = target: T2, hIL-17A (analyte of the Biacore assay); assay: SPR, Biacore T200: antibody captured on Protein A/G, hIL-17A as analyte
Experimental: as §1

[4] = target: T1, recombinant human IL-17A (purchased …); assay: cell-based or functional assay; remark: listed apart in the source

T2 sequence (Q16552 24-155 limits assumed): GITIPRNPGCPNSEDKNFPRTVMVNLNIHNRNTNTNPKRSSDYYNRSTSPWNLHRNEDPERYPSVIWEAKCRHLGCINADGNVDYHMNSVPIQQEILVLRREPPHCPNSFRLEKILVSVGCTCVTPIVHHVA
T1 sequence (Q16552 24-155 limits assumed): as above

IC50, inhibition of IL-17A-induced IL-6 secretion from Hela cells [1] [pM] | Kd [2] [nM] | koff [2] [s⁻¹] | kon [2] [M⁻¹ s⁻¹] | Kd [3] [nM] | koff [3] [s⁻¹] | kon [3] [M⁻¹ s⁻¹] | IC50(pM), inhibition of IL-17A-induced IL-6 secretion from Hela cells, Experiment 1 [4] [pM] | IC50(pM), inhibition of IL-17A-induced IL-6 secretion from Hela cells, Experiment 2 [4] [pM] | IC50(pM), inhibition of IL-17A-induced IL-6 secretion from Hela cells, Experiment 3 [4] [pM] | Binder
60.6 | 0.0411 | 9.45e-05 | 2.3e+06 | 0.0637 | 3.28e-05 | 515000 | 21.9 | 27.4 | 50.7 | Ixekizumab (antibody, V domains shown) VH: QVQLVQSGAEVKKPGSSVKVSCKASGYSFTDYHIHWVRQAPGQGLEWMGVINPMYGTTDYNQRFKGRVTITADESTSTAYMELSSLRSEDTAVYYCARYDYFTGTGVYWGQGTLVTVSS VL: DIVMTQTPLSLSVTPGQPASISCRSSRSLVHSRGNTYLHWYLQKPGQSPQLLIYKVSNRFIGVPDRFSGSGSGTDFTLKISRVEAEDVGVYYCSQSTHLPFTFGQGTKLEIKR
30.5 | – | – | – | 0.000299 | 6.08e-08 | 204000 | – | – | – | murine anti-human IL-17A monoclonal antibody No.120 (antibody, V domains shown, also called No.120 antibody; murine 120 antibody) VH: EVKLVESGGGLVRPGGTLKLSCAASGFTFSSFDMSWGRQTPEKRLEWVAFMSSGGSTYYPDSVKGRFTISRDNVRNILYLQMISLRSEDTAMYYCARGERYGSYWGQGTLVTVSA VL: DIQMTQSSSYLSVSLGGRVTITCKASDHINNWLAWYQQKPGNAPRLLISGATSLETGVPSRFSGSGSGKDYTLSITSLQTEDVATYYCQQYWSTPFTFGSGTKLEIK
– | < 0.001 | < 1e-05 | 445000 | – | – | – | 14.7 | 22 | 44.6 | humanized anti-human IL-17A monoclonal antibody 120-Hu (antibody, human IgG1, kappa, V domains shown, Human IgG1; also called 120-Humanization; humanized 120 antibody) VH: EVQLVESGGGLVQPGGSLRLSCAASGFTFSSFDMSWGRQAPGKRLEWVAFMSSGGSTYYPDSVKGRFTISRDNSKNTLYLQMNSLRAEDTAVYYCARGERYGSYWGQGTLVTVSS VL: DIQMTQSPSSLSASVGDRVTITCKASDHINNWLAWYQQKPGKAPKLLISGATSLETGVPSRFSGSGSGTDYTLTISSLQPEDFATYYCQQYWSTPFTFGSGTKLEIKR
